Assay results published in US20190367631A1 (Regeneron, published 2019).

T1: mouse MSR1 extracellular domain expressed with a N-terminal nonahistidine tag (His9-mMSR1); R&D Systems, Cat … (mouse, UniProt P30204 79-458)
T1 construct: extracellular domain; not shown: N-terminal nonahistidine tag
T1 sequence (looked up): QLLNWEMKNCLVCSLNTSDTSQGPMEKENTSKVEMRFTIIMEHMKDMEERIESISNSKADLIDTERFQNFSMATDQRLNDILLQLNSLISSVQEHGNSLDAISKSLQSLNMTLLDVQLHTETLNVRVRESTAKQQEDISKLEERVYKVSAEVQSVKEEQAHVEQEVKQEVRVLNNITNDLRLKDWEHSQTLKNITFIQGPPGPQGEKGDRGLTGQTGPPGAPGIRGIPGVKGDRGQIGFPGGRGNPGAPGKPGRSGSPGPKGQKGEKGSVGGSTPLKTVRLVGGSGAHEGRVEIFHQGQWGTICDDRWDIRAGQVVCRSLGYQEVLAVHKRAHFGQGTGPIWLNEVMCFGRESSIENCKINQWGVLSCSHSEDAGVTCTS

T2: human MSR1 extracellular domain expressed with a N-terminal nonahistidine tag (His9-hMSR1); R&D Systems, Cat … (human, UniProt P21757 77-451)
T2 construct: extracellular domain; Bought reagent; also called His-hMSR1; 9xHis-hMSR1
T2 sequence: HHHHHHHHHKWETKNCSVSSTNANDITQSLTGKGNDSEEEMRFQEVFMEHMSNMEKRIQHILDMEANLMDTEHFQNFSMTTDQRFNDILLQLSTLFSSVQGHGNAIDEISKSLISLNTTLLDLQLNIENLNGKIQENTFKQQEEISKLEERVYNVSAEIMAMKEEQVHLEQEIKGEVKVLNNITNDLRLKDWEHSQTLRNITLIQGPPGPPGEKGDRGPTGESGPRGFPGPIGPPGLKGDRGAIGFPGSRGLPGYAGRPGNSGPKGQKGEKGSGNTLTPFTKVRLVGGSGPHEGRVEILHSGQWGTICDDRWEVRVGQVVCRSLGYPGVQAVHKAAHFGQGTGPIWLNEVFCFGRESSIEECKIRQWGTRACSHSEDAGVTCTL

T3: human MSR1 extracellular domain expressed with a N-terminal nonahistidine tag (human, UniProt P21757 77-451)
T3 construct: extracellular domain; also called His9-hMSR1; His-hMSR1
T3 sequence: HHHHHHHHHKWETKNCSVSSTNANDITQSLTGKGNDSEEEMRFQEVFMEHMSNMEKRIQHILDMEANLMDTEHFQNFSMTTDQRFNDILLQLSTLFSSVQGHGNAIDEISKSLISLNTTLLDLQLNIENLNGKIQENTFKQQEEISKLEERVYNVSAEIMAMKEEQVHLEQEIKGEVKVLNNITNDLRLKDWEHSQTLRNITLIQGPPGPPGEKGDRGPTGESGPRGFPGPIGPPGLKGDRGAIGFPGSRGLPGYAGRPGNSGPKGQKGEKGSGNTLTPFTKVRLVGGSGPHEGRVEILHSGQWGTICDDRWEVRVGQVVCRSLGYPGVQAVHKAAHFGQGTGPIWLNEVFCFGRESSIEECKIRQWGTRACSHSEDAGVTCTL


What was measured:
[1] = biological target: T1, mouse MSR1 extracellular domain …; experiment: BLI Octet, 25 C, antibody captured
[2] = biological target: T2, human MSR1 extracellular domain …; experiment: SPR Biacore T200, 25 C, antibody captured by anti-human Fc, His9-hMSR1 injected;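 note: running buffer HBS-ET pH 7.4, rates from sensorgrams fitted to a 1:1 model including mass transport limitation, KD and half-life derived from the kinetic constants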
[3] = biological target: T2, human MSR1 extracellular domain …; experiment: SPR Biacore T200, 25 C, antibody captured by anti-human Fc, His9-hMSR1 injected; no dissociation seen, kd fixed at 1.00E-05;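 for kon: running buffer HBS-ET pH 7.4, rates from sensorgrams fitted to a 1:1 model including mass transport limitation, KD and half-life derived from the kinetic constants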
Experimental: All binding studies were performed in 10 mM HEPES, 300 mM NaCl, 3 mM EDTA, and 0.05% v/v Surfactant Tween-20, pH 7.4 (HBS-ET) running buffer at 25° C.
The association rate (kₐ) and dissociation rate (kd) were determined by fitting the real-time binding sensorgrams to a 1:1 binding model with mass transport limitation using Scrubber 2.0c curve-fitting software. Binding dissociation equilibrium constant (KD) and dissociative half-life (t½) were calculated from the kinetic rates as:

[4] = biological target: T3, human MSR1 extracellular domain …; experiment: competition ELISA, plate-coated His9-hMSR1; 100 nM antibody, competitor ligand Ac-LDL
Experimental: (§1) Buffer alone was also added to wells on each coat. […] This assay was conducted in four different assay runs.
(§2) Data analysis was performed using a sigmoidal dose-response model within Prism™ software (GraphPad).

[5] = biological target: T3, human MSR1 extracellular domain …; experiment: competition ELISA, plate-coated His9-hMSR1; 300 nM antibody, competitor ligand biot-AGE-BSA
Experimental: as §1, §2

binding result [1] | kon [2] | Kd [3] | koff [3] | t½ [3] | Binder | further results
no binding (tested: 100 nM) |  |  |  |  | H2aM25690N (antibody, V domains shown, Human variable domains with mouse IgG2a Fc; tied by the numerical identifier) VH: EVQLLESGGGLVQPGGSLRLSCAASGFTFSNYAMTWVRQAPGTGLEWVSAISGRGSNTYYTDSVKGRFTISRDNSKNMLYLQMNSLRAEDTASYYCAKDRFTTVGNWFDPWGQGTLVTVSS VL: DIQMTQSPSSLSASVGDRVTITCRASQSISSYLNWYQQKPGKAPKLLIYAASSLQNGVPSRFSGSGSGTDFTLTISSLQPEDFATYYCQQSYSSLPITFGQGTRLDIKR | 
no binding (tested: 100 nM) |  |  |  |  | H2aM25685N (antibody, V domains shown, Human variable domains with mouse IgG2a Fc; tied by the numerical identifier) VH: QVQLVQSGAEVREPGASVKLSCKVSGYTLTELSIHWVRQAPGKGLEWMGGFDPEEGETVYAQKFRGRVTLTEDISPDTAYMELSSLTSEDTAVYYCATPRYCNNGICYDYWGQGTLITVSS VL: not shown | 
 | 128000 M⁻¹ s⁻¹ | ≤ 0.078 nM | ≤ 1e-05 s⁻¹ | ≥ 19.3 h | H1H27731P-N297Q-LP1 (antibody, V domains shown, LXR agonist linker-payload LP1 clicked to azido-PEG3-amine on Q295 and Q297 (EU) of the heavy chain constant region, antibody-drug conjugate; human IgG1 Fc with N297Q (EU); also called H1H27731P-LP1) VH: QLQLQESGPGLVKPSETLSLTCTVSGGSISRISYYWGWIRQPPGKGLEWIGSIYDSGSTYYNPSLKSRVTISIDTSKNQFSLKLSSVTAADTAVYYCVRYSSSSAFAFDYWGQGTLVTVSS VL: DIQMTQSPSSVSASVGDRVTITCRASQGISSWLAWYQQKPGKAPKLLIYAASSLQSGVPSRFSGSGSGTDFTLTISSLQPEDFATYYCQQANSFPFTFGPGTKVDIKR | 
 | 177000 M⁻¹ s⁻¹ | ≤ 0.0564 nM | ≤ 1e-05 s⁻¹ | ≥ 19.3 h | H1H27754P-N297Q-LP1 (antibody, human IgG1, V domains shown, LXR agonist linker-payload LP1 clicked to azido-PEG3-amine on Q295 and Q297 (EU) of the heavy chain constant region, antibody-drug conjugate; human IgG1 Fc with N297Q (EU); also called H1H27754P-LP1) VH: EVQLVESGGGLVQPGGSLRLSCAASGFTFRTYAMTWVRQAPGKGLDWVSAITGDGGNTYYADSVKGRFTISRDNSKNTLYLQMNSLRAEDTAIYYCAKDQRFSFALYYFDYWGQGTLVTVSS VL: DIQMTQSPSSVSASVGDRVTITCRASQGISSWLAWYQQKPGNAPKLLIYAAFSLQSGVPSRFSGSGSGTDFTLTISSLQPEDFATYYCQQANNFPWTFGQGTKVEIKR | 
 | 200000 M⁻¹ s⁻¹ | ≤ 0.0499 nM | ≤ 1e-05 s⁻¹ | ≥ 19.3 h | H1H27754P-N297Q (antibody, human IgG1, V domains shown, human IgG1 Fc with N297Q (EU)) VH: EVQLVESGGGLVQPGGSLRLSCAASGFTFRTYAMTWVRQAPGKGLDWVSAITGDGGNTYYADSVKGRFTISRDNSKNTLYLQMNSLRAEDTAIYYCAKDQRFSFALYYFDYWGQGTLVTVSS VL: DIQMTQSPSSVSASVGDRVTITCRASQGISSWLAWYQQKPGNAPKLLIYAAFSLQSGVPSRFSGSGSGTDFTLTISSLQPEDFATYYCQQANNFPWTFGQGTKVEIKR | 
 |  |  |  |  | H1H27778P2-N297Q (antibody, human IgG1, V domains shown, Human IgG1 Fc with N297Q; also called H1H27778P-N297Q) VH: EVQLVESGGGLEQPGGSLRLSCAASGFTFSSYAMSWVRQAPGKGLEWVSVISGSGGYTNYADSVKGRFTISRDNSKNTLYLQMNRLRAEDSAVYYCARHNWNYDYYGMDVWGQGTTVTVSS VL: not shown | % Blocking [4]: -40%; % Blocking [5]: -8%
no binding (tested: 100 nM) |  |  |  |  | H2aM21232N (antibody, V domains shown, Human variable domains with mouse IgG2a Fc) VH: QVQLQESGPGLVKPSETLSLTCTVSGGSISSYYWSWIRQPPGKGLEWIGYIYYSGSANYNPSLKSRVTISVDTSKNQFSLKLSSVTAADTAVYYCVRDRDLLLDHWGQGTLVTVSS VL: not shown | 
